4 substances from paper PMC5811025 can be followed below.

Experiment [1] has as its target PrxQ:C54S (Corynebacterium glutamicum). As to the kind of experiment: mixed-disulfide heterodimer formation on non-reducing SDS-PAGE; 20 μM PrxQ variant and 15 μM Trx (WT or variant) in 30 mM Tris-HCl pH 8.0, 1 mM EDTA, room temperature 15 min, then 50 μM H2O2 for 30 min; 15% non-reducing SDS-PAGE.
Experiment [2] has as its target tag-free recombinant native peroxiredoxin Q (PrxQ) from Corynebacterium glutamicum (Corynebacterium glutamicum).

Turning to His6-Trx1:C35S (natural protein), the stoichiometry N (as a rule, a count of units in the complex or per binding partner) in experiment [1] stood at 1.
Regarding Trx1 WT (wild type) (natural protein), the Km for Trx1 of the peroxidase activity of PrxQ with CHP (NADPH-coupled assay, Trx1/TrxR system, 0-120 μM Trx, 1 μM PrxQ) in experiment [2] is 4.41 µM.
Turning to Trx2 WT (wild type) (natural protein), the Km for Trx2 of the peroxidase activity of PrxQ with CHP (NADPH-coupled assay, Trx2/TrxR system, 0-120 μM Trx, 1 μM PrxQ) in experiment [2] came out at 5.43 µM.
His6-Trx2:C33S (natural protein) came in with a stoichiometry N in experiment [1] of 1.
